Measured values taken from the RNAGym collection of RNA variant scans (doi:10.7554/elife.90254).

B1: LINE1-full (parent)
chain: UACGUAGGUGGUUUUCCCCUGAUAGUGCUAAGGGGGCCUGGAAGUUUGGACUGGGCAGAGCUCAACACAGCGUGGCAAAGUGGCUGUGGCUAGACUGCCUCUCUGGAUUCCUCGUCACUCAGCAGGGCAUCUCUGAGAGAAAUGCC

Variants of: B1
Test: self-cleavage, relative activity (ratio to wild type); higher = more cleavage; in vitro, sequencing; the parent is a self-cleaving ribozyme

Variant | self-cleavage
U14A C28U | 0.66
U73C A141U | 1.53
A22U A142G | 1.31
A22U U46C | 1.34
U26C G114U | 1.49
C19A U100A | 0.51
U20G U100C | 1.06
G88A A92G | 0.02
U96C C146A | 0.25
U20A G58C | 0.08
U46C A94G | 0.4
U87C U108C | 0.24
A2G U81C | 1.14
A136G A138U | 1.98
G137U | 1.31
G105U A136G | 1.47
U47C U130A | 1.31
C18U A142G | 1.27
U29C G48A | 0.88
C16U U100C | 1.02
U26A G144A | 1.03
G97A A140G | 0.11
A30U U45G | 0.74
C19U U29C | 1.37

Variant | self-cleavage
G11A U29A | 1.34
U62G A138C | 0.09
U46C A138C | 0
U46C A138G | 1.29
U23A U87A | 0.09
A67G A129G | 0.45
U12C U134A | 1.22
C61A A78G | 0.04
U12G A43C | 1.02
G11A A65G | 0.02
A50U C90U | 0.05
C17U U52G | 1.41
A24G G75A | 1.02
U85C G137A | 0.2
A6U G126A | 1.8
G58U A78G | 0.03
U87C U115C | 0.31
G4A U96A | 0.08
G32C G33U | 1.02
A92U G114U | 0.67
G80A U96C | 0.18
U81A A138G | 2.16
U45C U46C | 1.84
U12A U47C | 1.17

Variant | self-cleavage
U12A U47A | 0.67
C84U U112A | 0.11
U9A U12C | 0.86
C16U U112C | 1.71
U26G U130A | 0.79
C128U A140U | 1.36
A57G C128A | 0.12
C101U A141G | 2
G53A A107G | 1.28
U26A G88A | 0.07
U115C G122A | 1.77
U23A U115C | 1.18
U9C U104C | 1.82
G41A U87C | 0.26
U12C A24G | 1.13
A57G C113U | 0.29
A141G C145U | 1
A65G A136U | 0.07
G40A U87A | 0.06
C63A A124U | 0.03
U5G U100C | 1.15
A78G A92G | 0.11
U73A U130C | 1.82
U45C C56A | 0.06

Variant | self-cleavage
G53U U119A | 1.33
U62G G82U | 0.03
U85G U130C | 0.24
U115C U143G | 2.45
C95U U100C | 0.59
U96C C113U | 0.05
U9C G126U | 1.68
U20G U134C | 0.64
C19U U39C | 0.65
A22G G125A | 1.9
U73A | 1.46
C19G C56U | 0.22
G40A U100C | 1.59
G8A U62C | 0.05
A22U U112A | 1.19
U47A G106A | 1.3
U104A A129C | 1.61
C111A U130A | 1.16
U52C C71U | 0.7
U134C C145U | 1.1
U23A U46C | 1.57
U104C U108C | 2.07
U20C U81A | 1.44
U9A U52A | 0.9

Variant | self-cleavage
G33U U62C | 0.04
C71G A141G | 0.4
U91A A124G | 0.33
C76U C113A | 2.15
A22G G32A | 0.57
G58A A142G | 0
A67U U134A | 0.08
G74A U85C | 0.06
A42U A69C | 0.02
U23C G75C | 1.23
G32A U96A | 0.05
U15C G49A | 1.21
G10A U14C | 1.45
U62C U81A | 0.04
A78U U81C | 1.6
A42G C99A | 0.94
U73A C123U | 1.3
U12G U26A | 1.3
A78U | 1.92
A50G U87A | 0.03
A117G G137A | 1.66
U9A A78U | 1.65
G32U U91G | 0.1
U23C U132A | 1.86

Variant | self-cleavage
G54A A67G | 0.12
A42G U45A | 1.4
U85A A124G | 0.04
A69G C131A | 1.01
U14C G58C | 0.08
A43U A140U | 1.49
U46A U143C | 1.38
A94U U115A | 0.31
A121U A124C | 1.14
A67G G74A | 0.45
U46C C128U | 0.6
A69U A141G | 0.07
A64U G106U | 0.34
A2G C38A | 1.05
A77U U108C | 1.57
U81C A92G | 0
G72C U112C | 0.98
U26A A43U | 0.89
G40U A67G | 0.21
U96C A107G | 0.14
U5G U39C | 0.63
C18U A129U | 0.56
G4C U132C | 0.97
U46C A64G | 0.38

Variant | self-cleavage
U96C U115G | 0.21
U96C A117G | 0.2
C120U A124G | 1.26
A50G A79G | 1
U20C U85C | 0.38
A67U A140U | 0.08
A22G A136U | 0.87
G54U C90A | 0.06
U14C G55C | 0.09
U52C G60A | 0.03
U62C G125A | 0.06
U29G G70A | 0.27
A31G U46C | 1.67
U91G C111U | 0.02
U46C U108C | 1.69
C38U A141G | 0.84
U102C A117C | 2.63
U73A A138G | 1.75
U26A G40U | 0.37
A129U A140G | 1.53
U13G G114A | 0.64
U96G U108C | 0.13
U46C U115G | 0
